Key:
fbw1b_human FBXW11 = fbw1b_human FBXW11 (UniProt Q9UKB1)
fbw1a_human BTRC = fbw1a_human BTRC (UniProt Q9Y297)
Sequence of fbw1a_human BTRC (Q9Y297 whole entry): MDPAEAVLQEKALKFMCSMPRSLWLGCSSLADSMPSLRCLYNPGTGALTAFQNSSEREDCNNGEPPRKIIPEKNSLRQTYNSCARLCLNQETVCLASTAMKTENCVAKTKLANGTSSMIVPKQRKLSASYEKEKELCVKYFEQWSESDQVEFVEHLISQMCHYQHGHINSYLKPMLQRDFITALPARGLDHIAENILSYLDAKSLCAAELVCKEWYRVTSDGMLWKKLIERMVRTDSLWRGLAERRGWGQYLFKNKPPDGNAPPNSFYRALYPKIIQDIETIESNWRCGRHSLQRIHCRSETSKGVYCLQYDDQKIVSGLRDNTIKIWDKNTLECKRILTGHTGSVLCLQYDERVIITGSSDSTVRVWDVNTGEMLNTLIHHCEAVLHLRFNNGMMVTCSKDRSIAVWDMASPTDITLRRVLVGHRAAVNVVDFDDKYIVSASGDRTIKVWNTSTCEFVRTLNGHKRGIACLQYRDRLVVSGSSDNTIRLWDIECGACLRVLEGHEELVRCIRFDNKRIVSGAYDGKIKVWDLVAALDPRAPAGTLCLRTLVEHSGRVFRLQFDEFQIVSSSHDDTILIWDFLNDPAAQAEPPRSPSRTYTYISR

Sequence of fbw1b_human FBXW11 (Q9UKB1 whole entry): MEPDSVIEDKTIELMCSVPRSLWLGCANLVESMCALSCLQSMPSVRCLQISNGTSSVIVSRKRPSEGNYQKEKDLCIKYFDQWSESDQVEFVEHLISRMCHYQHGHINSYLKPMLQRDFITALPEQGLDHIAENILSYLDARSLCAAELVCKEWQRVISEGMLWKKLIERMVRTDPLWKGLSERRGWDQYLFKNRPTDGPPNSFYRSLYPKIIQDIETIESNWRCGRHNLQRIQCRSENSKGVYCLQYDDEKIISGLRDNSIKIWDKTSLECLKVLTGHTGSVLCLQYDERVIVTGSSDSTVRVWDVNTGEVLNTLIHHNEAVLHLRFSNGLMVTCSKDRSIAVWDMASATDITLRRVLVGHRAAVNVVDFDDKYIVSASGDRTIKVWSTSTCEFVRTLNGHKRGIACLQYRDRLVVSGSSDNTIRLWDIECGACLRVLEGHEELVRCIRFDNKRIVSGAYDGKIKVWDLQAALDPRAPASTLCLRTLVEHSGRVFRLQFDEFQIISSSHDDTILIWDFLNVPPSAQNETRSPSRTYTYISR

Substance | effect of a mutation on the interaction (fbw1b_human FBXW11) | effect of a mutation on the interaction (fbw1a_human BTRC)
Wee1-like protein kinase (Homo sapiens), P30291 D52A;S123A | decreasing interaction | 
Wee1-like protein kinase (Homo sapiens), P30291 E116A;E117A |  | decreasing interaction
Wee1-like protein kinase (Homo sapiens), P30291 S53A;S123A | decreasing interaction | 
Wee1-like protein kinase (Homo sapiens), P30291 S121A |  | decreasing interaction
Wee1-like protein kinase (Homo sapiens), P30291 S123A |  | decreasing interaction

Source: IntAct's records for PubMed 15070733
